From the nanobody polyreactivity screen of Harvey et al. (2022)

Assay: yeast display, Sf9 membrane polyspecificity reagent, FACS + sequencing; frameworks hold sequencing errors
Procedure, shortened: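 Polyreactivity labels are assigned by the sorting gate from which each nanobody was recovered. The gates were low and high (top ~1%), set on anti-HA fluorescence for expression and streptavidin fluorescence for reagent binding. Before sorting, galactose-induced (36–48 hours) yeast display cells were stained for 1 hour at 4 °C with 10% biotinylated, detergent-solubilized Sf9 membrane reagent.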

Sequence | polyreactivity (PSR sort gate)
QVQLVESGGGLVQAGGSLRLSCAASGGIFAWNAMGWYRQAPGKERELVAAISGRGGSTTYADSVKGRFTISRDNAKNTVYLQMNSLKPEDTAVYYCAKRWYSGWYKYDYWGQGTQVTVSS | high polyreactivity
QVQLVESGGGLVQAGGSLRLSCAASGFNFDYNAMGWYRQAPGKERELVAAISWSGGRTYYADSVKGRFTISRDNAKNTVYLQMNSLKPEDTAVYYCAARARNYPPYNYWGQGTQVTVSS | high polyreactivity
QDQLVESGGGLVQAGGSLRLSCAASGITFRYYAKGWYRPSPGKERELLAAISTSGGNTYYADSVKGRLTISRDNAKNTVYLQMKSLKPEDTAVYYCDVDGEYWYEYDGDYWGQGTQVNVSS | low polyreactivity
QVQLVESGGGLVQAGGSLRLSCAASGLTFPQYVMGWYRQAPGKERELVASISRSGGNTYYADSVKGRFTISRDNAKNTVYLQMNSLKPEDTAVYYCAAEYIFHYYDIFDYWGQGTQVTVSS | high polyreactivity
QVQLVESGGVLVQGRGSLRLSCDASGFTYYTNDMGWYRQAPWKERELVAAINSGGSTKYADSVKGRFPISRDNAKNTVYEQMNSLKPEETAVYYCNRDDNRKHSFGSVGYDYWGQGHQVTVSS | low polyreactivity
QVQLVESRGGLVQAGGSLRLSCAASGSIFLYAMGWYRQEPGKQRELVAAISGGGRTNYADSVKGRFTISRDNAKNTVYLQMNSMKPEDTAVYYCAADPVYWYSPMDYWGQGTQVTVSS | low polyreactivity
QVQLVESGGGLVQAGGSLRLSCAASGRTFRRYVMGWDRQSPGKERQLVAAIRWTGGSTYYADSVKGRFTISRDNAKNTVYLKMNSLKPEDTEVYYCAAYIRWSGGFDYWGQGTQVTVSS | high polyreactivity
QVQLVESGGGLVQAGGSLRLSCAASGSNFKLYSMGWYRQAPGKERELVATIRWSGGSTYYADSVKGRFTISRDNAKNTVYLQMNSLKPEDTAVYYCAARRVRPNGYTSSPLDYWGQGTQVTVSS | high polyreactivity
QVQLVESGGGLVQAGGSLRLSCAASGFTFVPYAMGWYRQAPGKERETNADSVKGRFTISRDNAKNTVYLQMNSLKPEDTAVYYCAAGGYGPYDYWGQGTQVTVSS | low polyreactivity
QVQLVESGGGLVQAGGSLRLSCAASGLIFTSYAMGWYRHAPGKERELVAAISTSGGRTYYADSVKGRFTISRDNAKNTVYVQMNSLKAEDTAVYYCYANWRYPYDYWGQGTQVTVSS | high polyreactivity
QVQLVESGGGIVQAGGSLRLSCAASGSSFQTNAMGWYRLAPGKERELVATINRSGDSTYYADSVKGRFTISRDNAKNTVYLQMNSLKPEDTAVYYCNKDWHSQDFSAYNSYDYWGQGTQVTVSS | low polyreactivity
QVQLVESGGGLVQAGGSLRLSCAASGFIFGDYAMGWYRQAPGTERELVAAIFSGGSTYYADSVKGRFTISRDNAKNTVYLQMNSLKPEDTAVYYCAARFARYDWSMYYWGQGTQVTVSS | low polyreactivity
QVQLVESVGGLVQAGGSLRLSCAASGSTLDGNPMGWYRQAPGKERELVAAISRSGTSTYYADSVKGRFTISRDNAKNTVYLQMNSLKPEDTAVYYCNKVGYIAFDYWGQGTQVTVSS | low polyreactivity
QVQLVETGGGLVQAGGSLRLSCAASGFTFAKYAMGRYRQAPGKERELVAAISSIGGSTYYADSVKGRFTISRDNAKNSVYLQMNSLKPEDSAVYFCAAELYCGYYYWGQGTQVTVYS | high polyreactivity
QVQLVESGGGLVQAGCSLRLSCAASGSIFGYNDMGWNRQAPGKERELVATITWGGGRTRYADSVKGRFTISRDNAKNTVYLQINCLKPEDIAVYYCAADKRSYSYVRPPRNHEDYWGQGSQVTVSS | low polyreactivity
QVQLVESGGGLVQAGGSLRLSCAASAFTFDPYARGWYRHAPGKERELDAANSWSGGSTYYADSVKGRFTISRDHAKNSVYLQMNSLKPEDTAVYYCAAEWYNSAYYEYDYWGQGTQVTVSS | high polyreactivity
QDQLVESGGGLVQAGGSLRLSCAASGSIFNVNTMGWYRQAPGKERGLVAAISYSGGSTYYADSVKGRFTISRDNAKNTVYLQMNSLKPEETAVYYCNVSPTTSGDGGGYDSWGQGTQVTVSS | low polyreactivity
